Substitutions are numbered along the chain they refer to. In names and notes the source's numbering stands. Several values for one entry are separate records, joined by “and”; a condition that tells them apart may be missing. Equal values may be shown once.
T1: horseradish peroxidase (Armoracia rusticana, UniProt P00433)
T1 sequence (P00433 31-338 limits assumed): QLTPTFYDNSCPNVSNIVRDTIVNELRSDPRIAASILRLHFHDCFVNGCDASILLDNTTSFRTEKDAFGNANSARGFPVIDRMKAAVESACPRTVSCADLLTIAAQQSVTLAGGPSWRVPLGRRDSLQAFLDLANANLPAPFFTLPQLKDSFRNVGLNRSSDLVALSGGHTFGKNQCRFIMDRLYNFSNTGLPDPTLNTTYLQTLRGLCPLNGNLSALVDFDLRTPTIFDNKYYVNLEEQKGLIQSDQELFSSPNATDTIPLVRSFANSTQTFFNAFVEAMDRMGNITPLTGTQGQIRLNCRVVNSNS

B1: T133I-E165I-F175I: IEMT triple mutant, monolignol 4-O methyltransferase-3 (protein, listed as Clarkia breweri)
chain: MGSTGNAEIQIIPTHSSDEEANLFAMQLASAAVLPMALKAAIELDVLEIMAKSVPPSGYISPAEIAAQLPTTNPEAPVMLDRVLRLLASYSVVTYTLRELPSGKVERLYGLAPVCKFLTKNEDGVSLAPFLLIATDKVLLEPWFYLKDAILEGGIPFNKAYGMNIFDYHGTDHRINKVFNKGMSSNSTITMKKILEMYNGFEGLTTIVDVGGGTGAVASMIVAKYPSINAINFDLPHVIQDAPAFSGVEHLGGDMFDGVPKGDAIFIKWICHDWSDEHCLKLLKNCYAALPDHGKVIVAEYILPPSPDPSIATKVVIHTDALMLAYNPGGKERTEKEFQALAMASGFRGFKVASCAFNTYVMEFLKTA
B2: T133L/L139Q/E165F: IEMT triple mutant variant (protein, listed as Clarkia breweri)
chain: B1 chain with I133L, L139Q, I165F, I175F
B3: IEMT wt: C. breweri (iso)eugenol 4-O-methyltransferase, wild type (GenBank U86760.1, SEQ ID NO: 1) (protein, listed as Clarkia breweri)
chain: B1 chain with I133T, I165E, I175F
B4: T133I-E165I-F175I-F166W-T135N: IEMT penta mutant derived from MOMT3 (protein)
chain: B1 chain with T135N, F166W

Legend:
Assay type in all cases: biochemical
horseradish peroxidase = biological target: T1, horseradish peroxidase; test: Peroxidase-catalyzed dehydrogenative polymerization in vitro; settings: incubation with horseradish peroxidase and H2O2
Excerpt: In vitro dehydrogenative polymerization is commonly used as a biomimetic model to explore in vivo lignin formation. Using the novel mutant variants, we produced methylated monolignol—the 4-O-methoxy-coniferyl alcohol, and subjected it to peroxidase-catalyzed dehydrogenative polymerization, compared to the classic p-coniferyl alcohol. […] The oligomer products include a predominant dimer, the β-5 inter subunit linkage, G(8-5)G, and a few minor peaks of the G(8-O-4)G and G(8-8)G dimers.

[1] = Kinetic parameters for 4-O-methylation of sinapyl alcohol; settings: for Km / Vmax: substrate sinapyl alcohol, 4-O-methylation
[2] = Substrate specificity of mutant variants; settings: p-hydroxycinnamyl alcohols and p-hydroxycinnamaldehydes
Excerpt: Kinetically, the mutant T133L/E165I/F175I equally preferred two major types of monolignols in angiosperms, i.e., coniferyl and sinapyl alcohols, whereas the T133L/L139Q/E165F variant favored coniferyl slightly over the sinapyl alcohol.

[3] = Kinetic parameters for 4-O-methylation of coniferyl alcohol; settings: for Km / Vmax: substrate coniferyl alcohol, 4-O-methylation
Procedure: E. coli transformants were inoculated in 96 well plates. Protein production was induced with 0.2 mM isopropyl β-D-1-thiogalactopyranoside, and the harvested cell cultures were lysed with 60 μl of BugBuster solution per well (Novagen). Enzymatic activity was screened using the lysates directly or after purification of the recombinant protein in a 96 well purification plate.
Screening was performed in a polypropylene microplate (Bio-Rad) containing 50 μl of the reaction in each well, 500 μM p-coniferyl-alcohol substrates, and 500 μM S-adenosyl-L-methionine augmented with (isotopic assay) or without (LC-MS assay) 0.005 μCi of [methyl-^14C]S-adenosyl-L-methionine, and 20 μl of lysates or purified protein (Ni^+ column eluate). (see Bhuiya, M. W. and Liu, C. J. (2010) J. Biol. Chem. 285:277-285 and its supplemental material).
To further optimize the catalytic efficiency of MOMT on the desired para-methylation of monolignols, based on the crystal structure of MOMT3, we identified additional amino acid residues that either directly contact or are proximate to the bound coniferyl alcohol, particularly the residues near the 3-methoxy-buried pocket. They are F130, A134, V138, L139, F157, Y161, N164, F166, Y168, H169, H173, F179, M183, N186, T319, L322, M323, A325, Y326, and N327. We then carried out the next round saturation mutagenesis on the recognized amino acid sites using MOMT3 as the parental template. […] The MOMT4 enzyme predominantly reacted with coniferyl and sinapyl alcohols, with preference for the latter, while the MOMT5 favors for coniferyl alcohol.

Row | Molecule | conversion and oligomerization (horseradish peroxidase) | catalytic efficiency ([1]; sinapyl alcohol) | fold increase of catalytic efficiency compared with the wild-type enzyme ([1]; sinapyl alcohol) | Km [1] | Vmax [1] | activity for lignin monomeric precursors [2] | catalytic efficiency ([3]; coniferyl alcohol) | fold increase of catalytic efficiency compared with the wild-type enzyme ([3]; coniferyl alcohol) | Km [3] | Vmax [3]
1 | COc1cc(/C=C/CO)ccc1O [coniferyl alcohol, p-coniferyl alcohol] | oxidized and conjugated, yielding several oligolignols |  |  |  |  |  |  |  |  | 
2 | B1 |  | 1463 M⁻¹ s⁻¹ | more than 70 fold | 120 µM and 119 µM | 275 ± 10 nmol/mg/min and 260 ± 6 nmol/mg/min | high activities | 1245 M⁻¹ s⁻¹ | more than 70 fold | 279 µM and 199 µM | 556 ± 35 nmol/mg/min and 371 ± 15 nmol/mg/min
3 | B2 |  |  |  |  |  | high activities |  |  |  | 
4 | B3 |  |  |  | 1500 ± 214 µM | 45 ± 4 nmol/mg/min | barely measurable |  |  | 1590 ± 182 µM | 42 ± 4 nmol/mg/min
5 | B4 |  |  |  | 54 ± 14 µM | 115 ± 9 nmol/mg/min |  |  |  | 167 ± 11 µM | 431 ± 12 nmol/mg/min
